Assay results reported in CN111995682A (BIOSION BIO TECH NANJING CO LTD, dated 2020).
Each block holds one binder with its values, some of them ahead of it.

Assays:
重组人SIRPα带his标签的蛋白 [1] = target: T1, 重组人SIRPα带his标签的蛋白 (human, UniProt P78324 31-373); test: SPR (Biacore T200), human SIRPα-his as analyte
T1 construct: extracellular domain; also called 人SIRPα-his抗原; SRPA-ECD-His; not shown: C-terminal His tag from vector pCMV-C-His

重组人SIRPα带his标签的蛋白 [2] = target: T1, 重组人SIRPα带his标签的蛋白; test: SPR (Biacore T200), ratio of KD against Benchmark
重组人SIRPα带his标签的蛋白 [3] = target: T1, 重组人SIRPα带his标签的蛋白; test: SPR (Biacore T200), antibody captured on anti-mouse IgG CM5 chip, human SIRPα-his as analyte
人SIRPβ-ECD-His抗原 = target: T2, 人SIRPβ-ECD-His抗原 (human, UniProt O00241 30-371); test: ELISA summary (Table 3, methods of Example 2)
T2 construct: It ends in a His tag; also called SIRPβ抗原
T2 sequence (O00241 other isoform, or with tags, fused parts or gaps): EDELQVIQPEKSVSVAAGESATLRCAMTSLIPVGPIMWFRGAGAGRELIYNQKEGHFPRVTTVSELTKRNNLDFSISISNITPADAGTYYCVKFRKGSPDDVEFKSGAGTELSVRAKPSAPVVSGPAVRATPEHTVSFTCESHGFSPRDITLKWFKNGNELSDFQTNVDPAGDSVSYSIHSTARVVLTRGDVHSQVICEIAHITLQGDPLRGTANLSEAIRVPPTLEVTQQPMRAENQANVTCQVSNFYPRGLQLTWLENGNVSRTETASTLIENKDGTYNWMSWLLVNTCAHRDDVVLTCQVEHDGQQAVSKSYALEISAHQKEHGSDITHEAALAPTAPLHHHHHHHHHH

T1 sequence (P78324 31-373): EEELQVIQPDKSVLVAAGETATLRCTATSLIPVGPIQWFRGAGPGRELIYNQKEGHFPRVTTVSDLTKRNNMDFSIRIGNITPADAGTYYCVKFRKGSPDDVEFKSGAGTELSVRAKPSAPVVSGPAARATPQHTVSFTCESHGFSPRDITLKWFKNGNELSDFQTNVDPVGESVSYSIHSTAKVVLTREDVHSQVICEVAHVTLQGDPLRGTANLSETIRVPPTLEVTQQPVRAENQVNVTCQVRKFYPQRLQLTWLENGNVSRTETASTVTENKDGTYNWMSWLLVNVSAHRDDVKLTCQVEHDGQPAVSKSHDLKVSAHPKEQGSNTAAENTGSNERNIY

- Kd (重组人SIRPα带his标签的蛋白 [1]): 2.94 nM
B1: Benchmark (KWAR23抗体) (antibody, human IgG4 S228P, kappa, V domains shown)
VH: EVQLQQSGAELVKPGASVKLSCTASGFNIKDYYIHWVQQRTEQGLEWIGRIDPEDGETKYAPKFQDKATITADTSSNTAYLHLSSLTSEDTAVYYCARWGAYWGQGTLVTVSA
VL: QIVLTQSPAIMSASPGEKVTLTCSASSSVSSSYLYWYQQKPGSSPKLWIYSTSNLASGVPARFSGSGSGTSYSLTISSMEAEDAASYFCHQWSSYPRTFGAGTKLELKR
notes: Made in-house; full heavy and light chains are printed; The printed constant regions look human, while the ELISA and Biacore protocols describe anti-mouse capture and detection reagents; also called BM; 参照抗体

- fold stronger affinity than Benchmark (重组人SIRPα带his标签的蛋白 [2]): ~2.4 fold
- Kd (重组人SIRPα带his标签的蛋白 [3]): 1.25 nM
- binding result (人SIRPβ-ECD-His抗原): binds
B2: 抗人SIRPα单克隆抗体 A2D9D1B1 (antibody, mouse IgG1, kappa, V domains shown)
VH: QVQLKESGPGLVAPSQSLSITCTVSGFSLSSYAIHWVRQPPGKGLEWLGVIWTGGSTIYNSALMSRLNISKDNSKSQVFLKMNSLQTDDTAMYYCARGNYLRYWGQGTLVTVSA
VL: NIVLTQSPASLAVSLGQRATISCRASESVDSYGYSYMHWNQQKPGQPPKLLIYLASDLESGVPARFSGSGSRTDFTLTIDPVEADDAATYYCQQNNDDPWTFGGGTKLEIKR
notes: also called 鼠抗A2D9D1B1; A2D9D1B1单克隆抗体
